Results as given in patent publication US20030215913A1 (published 2003).

T1: LP226 (human, UniProt Q6WN34 26-429, limits assumed)
T1 construct: Secreted chordin-like protein; the cleavage site was not determined by experiment; also called LP226 polypeptide; LP polypeptide
T1 sequence: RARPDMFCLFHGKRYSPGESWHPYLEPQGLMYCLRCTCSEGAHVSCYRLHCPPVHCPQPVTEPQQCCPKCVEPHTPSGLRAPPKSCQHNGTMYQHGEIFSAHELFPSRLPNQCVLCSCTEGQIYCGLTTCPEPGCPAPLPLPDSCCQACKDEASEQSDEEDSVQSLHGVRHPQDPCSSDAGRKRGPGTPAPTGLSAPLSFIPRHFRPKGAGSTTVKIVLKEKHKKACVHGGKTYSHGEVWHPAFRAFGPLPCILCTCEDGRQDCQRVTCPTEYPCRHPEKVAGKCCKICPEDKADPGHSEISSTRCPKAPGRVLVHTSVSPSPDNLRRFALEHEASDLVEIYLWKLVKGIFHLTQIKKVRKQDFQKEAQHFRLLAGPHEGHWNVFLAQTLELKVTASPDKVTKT

B1: BMP-5 (ligand, UniProt P22003 317-454, looked up)
chain: AANKRKNQNRNKSSSHQDSSRMSSVGDYNTSEQKQACKKHELYVSFRDLGWQDWIIAPEGYAAFYCDGECSFPLNAHMNATNHAIVQTLVHLMFPDHVPKPCCAPTKLNAISVLYFDDSSNVILKKYRNMVVRSCGCH
B2: BMP-6 (ligand, UniProt P22004 382-513, looked up)
chain: QQSRNRSTQSQDVARVSSASDYNSSELKTACRKHELYVSFQDLGWQDWIIAPKGYAANYCDGECSFPLNAHMNATNHAIVQTLVHLMNPEYVPKPCCAPTKLNAISVLYFDDNSNVILKKYRNMVVRACGCH
B3: fas-ligand (ligand, UniProt P48023 134-281, looked up)
chain: PSPPPEKKELRKVAHLTGKSNSRSMPLEWEDTYGIVLLSGVKYKKGGLVINETGLYFVYSKVYFRGQSCNNLPLSHKVYMRNSKYPQDLVMMEGKMMSYCTTGQMWARSSYLGAVFNLTSADHLYVNVSELSLVNFEESQTFFGLYKL
notes: Negative control injected over the LP226 surface; also called negative control

Each binder was assayed against T1, LP226 (assay: BIAcore 2000 SPR, LP226 amine-coupled to CM5 chip, ligand injected).
Procedure: A BIAcore 2000 instrument is used to detect real-time binding between immobilized LP226 and various TGF-beta and BMP proteins. LP226 is diluted to a concentration of […] in 10 mM sodium acetate buffer at pH 5.0. LP226 is immobilized to a CM5 sensor chip using the amine coupling method. Follistatin, containing BSA, is immobilized as a positive control.
TGF-beta and BMP proteins are diluted in HBS-EP buffer. Samples are injected over LP226 and control surfaces using the kinject method. Samples containing 5 µg/mL and 1 μg/mL of protein are injected at 30 μL/min for three minutes with a ninety second dissociation time. LP226 and control surfaces are then regenerated with glycine-hydrochloride at pH 3.0.
B1: no binding (tested: 5 g/mL and 1 µg/mL). B2: no binding (tested: 5 g/mL and 1 µg/mL). B3: no binding.
